For experiment [1], the target named is T1, human Tissue Factor on MDA-MB-231 cells (human, UniProt P13726 33-295).
T1 construct: also called TF; hTF
Description: flow cytometry, MDA-MB-231 cells; binding of 20 nM FVII-Fc-Alexa488 (competitor) left at 250 nM Ab. A general note: A flow cytometer gives signals particle by particle.

In experiment [2] the target is T1, human Tissue Factor on MDA-MB-231 cells. As to the kind of experiment: flow cytometry, MDA-MB-231 cells; binding of 20 nM FVII-Fc-Alexa488 (competitor) left at 83 nM Ab.
Experiment [3] shares this target. Description: cell-based or functional assay.
The target is the same in experiment [4]. As to the kind of experiment: flow cytometry, MDA-MB-231 cells; binding of 20 nM FVII-Fc-Alexa488 (competitor) left at 9.25 nM Ab.
For experiment [5] the target is unchanged. As to the kind of experiment: cell-based or functional assay. This is another data set of the same source.
The target is the same in experiment [6]. Description: flow cytometry, MDA-MB-231 cells; binding of 20 nM FVII-Fc-Alexa488 (competitor) left at 28 nM Ab.
The target in the next experiment is Relipidated TF (UniProt P13726 33-295, limits assumed). As to the kind of experiment: cell-based or functional assay.
For experiment [7], the target named is rTF (rat TF) on HEK293 cells (rat, UniProt P42533 29-252). As to the kind of experiment: live cell staining of transfected HEK293, flow cytometry.
rTF (rat TF) on HEK293 cells, sequence (P42533 29-252): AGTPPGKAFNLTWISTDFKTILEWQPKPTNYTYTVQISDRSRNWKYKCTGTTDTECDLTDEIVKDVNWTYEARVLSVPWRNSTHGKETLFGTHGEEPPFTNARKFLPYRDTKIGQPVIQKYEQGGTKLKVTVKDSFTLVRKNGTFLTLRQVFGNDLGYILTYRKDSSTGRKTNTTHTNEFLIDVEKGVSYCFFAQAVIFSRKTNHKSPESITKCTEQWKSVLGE
A further experiment deals with T2, hTF_N171H_T197K (human, UniProt P13726 33-251).
T2 construct: the entry already holds N171H and T197K; on transfected HEK293 cells
T2 chain: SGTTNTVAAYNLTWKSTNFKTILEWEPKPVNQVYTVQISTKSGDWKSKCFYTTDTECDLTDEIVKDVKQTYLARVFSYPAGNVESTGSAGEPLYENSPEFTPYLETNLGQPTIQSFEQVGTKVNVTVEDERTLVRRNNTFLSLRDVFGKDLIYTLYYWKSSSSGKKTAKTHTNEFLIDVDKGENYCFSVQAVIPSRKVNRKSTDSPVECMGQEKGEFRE
The experiment is described as above.

Experiment [8] has as its target T3, human TF ECD-His6 (human, UniProt P13726 33-251).
T3 construct: made in Expi293 cells; the entry holds the ECD with the C-terminal TG-His6; also called TF-His; hTF
As to the kind of experiment: SPR (Biacore), antibody on chip, TF-His titrated. For orientation: Surface plasmon resonance follows binding to a sensor surface in real time, without labels.

For experiment [9], the target named is T4, cynomolgus TF ECD-His6 (cynomolgus monkey (Macaca fascicularis)).
T4 construct: made in Expi293 cells; also called TF-His; cTF
T4 chain: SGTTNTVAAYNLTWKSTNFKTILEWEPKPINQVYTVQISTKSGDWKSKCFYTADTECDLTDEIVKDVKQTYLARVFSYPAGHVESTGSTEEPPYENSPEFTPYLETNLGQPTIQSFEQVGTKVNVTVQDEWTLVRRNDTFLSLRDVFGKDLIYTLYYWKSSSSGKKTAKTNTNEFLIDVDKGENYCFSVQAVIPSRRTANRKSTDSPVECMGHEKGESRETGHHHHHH
As to the kind of experiment: SPR (Biacore), antibody on chip, TF-His titrated.

For experiment [10], the target named is T3, human TF ECD-His6. As to the kind of experiment: BLI (ForteBio Octet). Background: BLI is a label-free optical method that tracks binding on a fibre tip over time.
For experiment [11], the target named is T4, cynomolgus TF ECD-His6. Description: BLI (ForteBio Octet).
In experiment [12] the target is T5, mouse TF ECD-His6 (mouse, UniProt P20352 29-251).
T5 construct: made in Expi293 cells; also called TF-His; mTF
As to the kind of experiment: BLI (ForteBio Octet).

For experiment [13], the target named is T5, mouse TF ECD-His6. As to the kind of experiment: SPR (Biacore), antibody on chip, TF-His titrated.

B1: 29D (antibody, V domains shown)
VH: QVQLVESGGGVVQPGRSLRLSCAASGFTFHSRGMHWVRQAPGKGLEWVAVITYDGINKYYADSVEGRFTISRDNSKNTLYLQMNSLRAEDTAVYYCARDGVYYGVYDYWGQGTLVTVSS
VL: not shown
notes: Human anti-TF IgG1
With B1, the “% FVIIa” value in [1] was found to be 3%. Further, the “% FVIIa” value in [2] came to 3%. Moreover, in experiment [3], the “% FXa, 12.5 nM Ab” value was 85%; the “% FXa, 25 nM Ab” value was 77%; the “% FXa, 50 nM Ab” value is 75%; the “% FXa, 100 nM Ab” value worked out at 75%. Also, in experiment [4], the “% FVIIa” value was found to be 6%. Moreover, in experiment [5], the “% IL8, 2.56 nM Ab” value was determined as 27%; the “% IL8, 6.4 nM Ab” value came to 6%; the “% IL8, 16 nM Ab” value is 2%; the “% IL8, 40 nM Ab” value stood at 2%. In addition, the “% IL8, 100 nM Ab” value in experiment [5] came to 1%. Besides, the “% FVIIa” value in experiment [6] was determined as 4%.

B2: 29E (antibody, V domains shown)
VH: QVQLVESGGGVVQPGRSLRLSCAASGFTFRSYGMHWVRQAPGKGLEWVAVITYDGINKYYADSVEGRFTISRDNSKNTLYLQMNSLRAEDTAVYYCARDGVYYGVYDYWGQGTLVTVSS
VL: not shown
notes: Human anti-TF IgG1
As for B2, in experiment [1], the “% FVIIa” value was 2%. The “% FVIIa” value in experiment [2] came to 2%. Moreover, in the experiment with Relipidated TF, the “TGA % ETP, 10 nM Ab, 10 min pre-incubation” value is 73%; the “TGA % ETP, 50 nM Ab, 10 min pre-incubation” value was found to be 68%; the “TGA % ETP, 100 nM Ab, 10 min pre-incubation” value was 64%; the “TGA % Peak IIa, 10 nM Ab, 10 min pre-incubation” value worked out at 30%. In addition, in the experiment with Relipidated TF, the “TGA % Peak IIa, 50 nM Ab, 10 min pre-incubation” value was determined as 27%; the “TGA % Peak IIa, 100 nM Ab, 10 min pre-incubation” value stood at 26%; the “TGA ETP, 10 nM Ab, 10 min pre-incubation” value is 1250 nM·min; the “TGA ETP, 50 nM Ab, 10 min pre-incubation” value worked out at 1170 nM·min. For the same molecule, in the experiment with Relipidated TF, the “TGA ETP, 100 nM Ab, 10 min pre-incubation” value was determined as 1100 nM·min; the “TGA Lag Time, 10 nM Ab, 10 min pre-incubation” value was 10.4 min; the “TGA Lag Time, 50 nM Ab, 10 min pre-incubation” value worked out at 14.2 min; the “TGA Lag Time, 100 nM Ab, 10 min pre-incubation” value worked out at 15.1 min. Besides, in the experiment with Relipidated TF, the “TGA Peak IIa, 10 nM Ab, 10 min pre-incubation” value is 78 nM; the “TGA Peak IIa, 50 nM Ab, 10 min pre-incubation” value is 70 nM; the “TGA Peak IIa, 100 nM Ab, 10 min pre-incubation” value stood at 68 nM; the “TGA ttPeak, 10 nM Ab, 10 min pre-incubation” value turned out to be 20.2 min. Moreover, in the experiment with Relipidated TF, the “TGA ttPeak, 50 nM Ab, 10 min pre-incubation” value amounted to 24.3 min and the “TGA ttPeak, 100 nM Ab, 10 min pre-incubation” value was 25.3 min. Moreover, in experiment [3], the “% FXa, 12.5 nM Ab” value was found to be 81%; the “% FXa, 25 nM Ab” value amounted to 68%; the “% FXa, 50 nM Ab” value was found to be 63%; the “% FXa, 100 nM Ab” value is 66%. Moreover, the “% FVIIa” value in experiment [4] is 5%. Moreover, in [5], the “% IL8, 2.56 nM Ab” value was 33%; the “% IL8, 6.4 nM Ab” value stood at 5%; the “% IL8, 16 nM Ab” value was 2%; the “% IL8, 40 nM Ab” value was determined as 2%. Moreover, in [5], the “% IL8, 100 nM Ab” value is 2%. In experiment [6], the “% FVIIa” value amounted to 3%.

B3: 54E (antibody, V domains shown)
VH: QVQLVQSGAEVKKPGASVKVSCKASGYTFANYYMHWVRQAPGQGLEWMGIINPSGGITVYAQKFQGRVTMTRDTSTSTVYMELSSLRSEDTAVYYCARGGSKVAALAFDIWGQGTMVTVSS
VL: DIQMTQSPSSLSASVGDRVTITCQASQDISNSLNWYQQKPGKAPKLLIYDASNLETGVPSRFSGSRSGTDFTFTISSLQPEDIATYYCQQYNFHPLTFGGGTKVEIK
notes: Human anti-TF IgG1
Take B3: the “% FVIIa” value in [1] came to 2%. The “% FVIIa” value in [2] is 3%. Moreover, in experiment [3], the “% FXa, 12.5 nM Ab” value is 53%; the “% FXa, 25 nM Ab” value is 44%; the “% FXa, 50 nM Ab” value came to 41%; the “% FXa, 100 nM Ab” value was determined as 42%. Moreover, in experiment [4], the “% FVIIa” value was 11%. For the same molecule, in [5], the “% IL8, 2.56 nM Ab” value amounted to 48%; the “% IL8, 6.4 nM Ab” value was 8%; the “% IL8, 16 nM Ab” value stood at 3%; the “% IL8, 40 nM Ab” value was 2%. Besides, the “% IL8, 100 nM Ab” value in [5] turned out to be 2%. Further, in experiment [6], the “% FVIIa” value came to 3%.

B4: 25A3 (antibody, human IgG1, kappa, V domains shown)
VH: QVQLVQSGAEVKKPGASVKVSCKASGYTFDVYGISWVRQAPGQGLEWMGWIAPYSGNTNYAQKLQGRVTMTTDTSTSTAYMELRSLRSDDTAVYYCARDAGTYSPFGYGMDVWGQGTTVTVSS
VL: DIQMTQSPSTLSASVGDRVTITCQASQSINNWLAWYQQKPGKAPKLLIYKAYNLESGVPSRFSGSGSGTEFTLTISSLQPDDFATYYCQLFQSLPPFTFGGGTKVEIKR
notes: human IgG1
As for B4, the binding result in experiment [7] was “no binding (tested: 15 µg/ml (100 nM))”; in the experiment with hTF_N171H_T197K it was “no binding”. For the same molecule, the Kd in the experiment with human TF ECD-His6 [8] amounted to 0.36 nM; with cynomolgus TF ECD-His6 [9], 0.21 nM; with human TF ECD-His6 [10], 1.67 nM; with cynomolgus TF ECD-His6 [11] it was 1.36 nM; with mouse TF ECD-His6 [12], 131 nM.

B5: 1G (antibody, V domains shown)
VH: EVQLLESGGGLVQPGGSLRLSCAASGFTFSSYAMAWVRQAPGKGLEWVSAISGSGGLTYYADSVKGRFTISRDNSKNTLYLQMNSLRAEDTAVYYCAKAPYGYYMDVWGKGTTVTVSS
VL: not shown
notes: Human anti-TF IgG1
For the molecule B5, the “% FVIIa” value in experiment [1] was 6%. In addition, in experiment [2], the “% FVIIa” value is 7%. In addition, in [3], the “% FXa, 12.5 nM Ab” value was 55%; the “% FXa, 25 nM Ab” value came to 48%; the “% FXa, 50 nM Ab” value worked out at 41%; the “% FXa, 100 nM Ab” value is 41%. Also, in experiment [4], the “% FVIIa” value was found to be 7%. Moreover, in [5], the “% IL8, 2.56 nM Ab” value came out at 26%; the “% IL8, 6.4 nM Ab” value was 4%; the “% IL8, 16 nM Ab” value was 3%; the “% IL8, 40 nM Ab” value turned out to be 2%. In addition, the “% IL8, 100 nM Ab” value in [5] was 2%. In addition, in [6], the “% FVIIa” value came out at 7%.

B6: 43D7 (antibody, human IgG1, kappa, V domains shown)
VH: QVQLQQWGAGLLKPSETLSLTCAVYGGSLSGYYWSWIRQPPGKGLEWIGEIGASGSTRYNPSLKSRVTISVDTSKNQFSLKLSSVTAADTAVYYCARDTPYYYEGGYYYYMDVWGKGTTVTVSS
VL: EIVLTQSPGTLSLSPGERATLSCRASDSVDSSYLAWYQQKPGQAPRLLIYGAFSRANGIPDRFSGSGSGTDFTLTISRLEPEDFAVYYCQQAGVVPYTFGGGTKVEIKR
notes: human IgG1
On to B6, for which the Kd was 21 nM with mouse TF ECD-His6 [13] and 41.4 nM with mouse TF ECD-His6 [12].

B7: 43D8 (antibody, human IgG1, kappa, V domains shown)
VH: QVQLQQWGAGLLKPSETLSLTCAVYGGSLSGYYWSWIRQPPGKGLEWIGEIGASGSTRYNPSLKSRVTISVDTSKNQFSLKLSSVTAADTAVYYCARDTPYYYEGGYYYYMDVWGKGTTVTVSS
VL: EIVLTQSPGTLSLSPGERATLSCRASQSVSSSFLAWYQQKPGQAPRLLIYGAYSRATGIPDRFSGSGSGTDFTLTISRLEPEDFAVYYCQQAGVVPYTFGGGTKVEIKR
notes: human IgG1; also called 43D8 mAb; test article
As to B7, the Kd with mouse TF ECD-His6 [13] amounted to 2.4 nM; in the experiment with mouse TF ECD-His6 [12] it was 6.12 nM.

For orientation: Kd means a measure of binding affinity in units of concentration.

These data come from patent publication US20240166765A1 (ICONIC THERAPEUTICS, published 2024).
